B1: library; numbered along this chain (parent)
chain: MAAAGGARLLRAASAVLGGPAGRWLHHAGSRAGSSGLLRNRGPGGSAEASRSLSVSARARSSSEDKITVHFINRDGETLTTKGKVGDSLLDVVVENNLDIDGFGACEGTLACSTCHLIFEDHIYEKLDAITDEENDMLDLAYGLTDRSRLGCQICLTKSMDNMTVRVPETVADARQSIDVGKTS

Variants of: B1
Assay: scaled log2 fold change in cell abundance, elesclomol vs control (0 = silent mean, 1 = nonsense mean) (scaled log2 ratio); higher = higher viability under elesclomol (loss of FDX1 cuproptosis function)
Settings: glucose 10 mM
[1] = with ABC1 FDX1 KO, elesclomol 5 nM, 14 days
[2] = with HEK293T FDX1 KO, elesclomol 40 nM, 11 days
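Also: variant abundance is its share of total variant reads in each endpoint sample, from next-generation sequencing of the integrated ORF PCR-amplified out of genomic DNA.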

## MAAAGGARLLRAASAVLGGPAGRWLHHAGSRAGSSGLLRNRGPGGSAEASRSLSVSARARSSSEDKITVHFINRDGETLTTKGKVGDSLLDVVVENNLDIDGFGACEGTLACSTCHLIFEDHIYEKLDAITDEENDMLDLAYGLTDRSRLGIQICLTKSMDNMTVRVPETVADARQSIDVGKTS [C152I]
[1]
  scaled log2 fold change: 1.12
[2]
  scaled log2 fold change: 1.09

## MAAAGGARLLRAASAVLGGPAGRWLHHAGSRAGSSGLLRNRGPGGSAEASRSLSVSARARSSSEDKITVHFINRDGETLTTKGKVGDSLLDVVVENNLDIDGFGACEGTLACSTCHLIFEDHIYEKLDAITDEENDMLDLAYGLTDRSRLGKQICLTKSMDNMTVRVPETVADARQSIDVGKTS [C152K]
[1]
  scaled log2 fold change: 1.05
[2]
  scaled log2 fold change: 0.942

## MAAAGGARLLRAASAVLGGPAGRWLHHAGSRAGSSGLLRNRGPGGSAEASRSLSVSARARSSSEDKITVHFINRDGETLTTKGKVGDSLLDVVVENNLDIDGFGACEGTLACSTCHLIFEDHIYEKLDAITDEENDMLDLAYGLTDRSRLGLQICLTKSMDNMTVRVPETVADARQSIDVGKTS [C152L]
[1]
  scaled log2 fold change: 1.14
[2]
  scaled log2 fold change: 1.41

## MAAAGGARLLRAASAVLGGPAGRWLHHAGSRAGSSGLLRNRGPGGSAEASRSLSVSARARSSSEDKITVHFINRDGETLTTKGKVGDSLLDVVVENNLDIDGFGACEGTLACSTCHLIFEDHIYEKLDAITDEENDMLDLAYGLTDRSRLGMQICLTKSMDNMTVRVPETVADARQSIDVGKTS [C152M]
[1]
  scaled log2 fold change: 1.16
[2]
  scaled log2 fold change: 0.861

## MAAAGGARLLRAASAVLGGPAGRWLHHAGSRAGSSGLLRNRGPGGSAEASRSLSVSARARSSSEDKITVHFINRDGETLTTKGKVGDSLLDVVVENNLDIDGFGACEGTLACSTCHLIFEDHIYEKLDAITDEENDMLDLAYGLTDRSRLGNQICLTKSMDNMTVRVPETVADARQSIDVGKTS [C152N]
[1]
  scaled log2 fold change: 1
[2]
  scaled log2 fold change: 2.21

## MAAAGGARLLRAASAVLGGPAGRWLHHAGSRAGSSGLLRNRGPGGSAEASRSLSVSARARSSSEDKITVHFINRDGETLTTKGKVGDSLLDVVVENNLDIDGFGACEGTLACSTCHLIFEDHIYEKLDAITDEENDMLDLAYGLTDRSRLGPQICLTKSMDNMTVRVPETVADARQSIDVGKTS [C152P]
[1]
  scaled log2 fold change: 1.08
[2]
  scaled log2 fold change: 1.13

## MAAAGGARLLRAASAVLGGPAGRWLHHAGSRAGSSGLLRNRGPGGSAEASRSLSVSARARSSSEDKITVHFINRDGETLTTKGKVGDSLLDVVVENNLDIDGFGACEGTLACSTCHLIFEDHIYEKLDAITDEENDMLDLAYGLTDRSRLGQQICLTKSMDNMTVRVPETVADARQSIDVGKTS [C152Q]
[1]
  scaled log2 fold change: 1.01
[2]
  scaled log2 fold change: 1.18

## MAAAGGARLLRAASAVLGGPAGRWLHHAGSRAGSSGLLRNRGPGGSAEASRSLSVSARARSSSEDKITVHFINRDGETLTTKGKVGDSLLDVVVENNLDIDGFGACEGTLACSTCHLIFEDHIYEKLDAITDEENDMLDLAYGLTDRSRLGRQICLTKSMDNMTVRVPETVADARQSIDVGKTS [C152R]
[1]
  scaled log2 fold change: 1.08
[2]
  scaled log2 fold change: 1.5

## MAAAGGARLLRAASAVLGGPAGRWLHHAGSRAGSSGLLRNRGPGGSAEASRSLSVSARARSSSEDKITVHFINRDGETLTTKGKVGDSLLDVVVENNLDIDGFGACEGTLACSTCHLIFEDHIYEKLDAITDEENDMLDLAYGLTDRSRLGSQICLTKSMDNMTVRVPETVADARQSIDVGKTS [C152S]
[1]
  scaled log2 fold change: 1.17
[2]
  scaled log2 fold change: 1.18

## MAAAGGARLLRAASAVLGGPAGRWLHHAGSRAGSSGLLRNRGPGGSAEASRSLSVSARARSSSEDKITVHFINRDGETLTTKGKVGDSLLDVVVENNLDIDGFGACEGTLACSTCHLIFEDHIYEKLDAITDEENDMLDLAYGLTDRSRLGTQICLTKSMDNMTVRVPETVADARQSIDVGKTS [C152T]
[1]
  scaled log2 fold change: 1.06
[2]
  scaled log2 fold change: 1.22

## MAAAGGARLLRAASAVLGGPAGRWLHHAGSRAGSSGLLRNRGPGGSAEASRSLSVSARARSSSEDKITVHFINRDGETLTTKGKVGDSLLDVVVENNLDIDGFGACEGTLACSTCHLIFEDHIYEKLDAITDEENDMLDLAYGLTDRSRLGVQICLTKSMDNMTVRVPETVADARQSIDVGKTS [C152V]
[1]
  scaled log2 fold change: 1.23
[2]
  scaled log2 fold change: 1.12

## MAAAGGARLLRAASAVLGGPAGRWLHHAGSRAGSSGLLRNRGPGGSAEASRSLSVSARARSSSEDKITVHFINRDGETLTTKGKVGDSLLDVVVENNLDIDGFGACEGTLACSTCHLIFEDHIYEKLDAITDEENDMLDLAYGLTDRSRLGWQICLTKSMDNMTVRVPETVADARQSIDVGKTS [C152W]
[1]
  scaled log2 fold change: 1.13
[2]
  scaled log2 fold change: 1.28

## MAAAGGARLLRAASAVLGGPAGRWLHHAGSRAGSSGLLRNRGPGGSAEASRSLSVSARARSSSEDKITVHFINRDGETLTTKGKVGDSLLDVVVENNLDIDGFGACEGTLACSTCHLIFEDHIYEKLDAITDEENDMLDLAYGLTDRSRLGYQICLTKSMDNMTVRVPETVADARQSIDVGKTS [C152Y]
[1]
  scaled log2 fold change: 1.15
[2]
  scaled log2 fold change: 1.64

## MAAAGGARLLRAASAVLGGPAGRWLHHAGSRAGSSGLLRNRGPGGSAEASRSLSVSARARSSSEDKITVHFINRDGETLTTKGKVGDSLLDVVVENNLDIDGFGACEGTLACSTCHLIFEDHIYEKLDAITDEENDMLDLAYGLTDRSRLGCAICLTKSMDNMTVRVPETVADARQSIDVGKTS [Q153A]
[1]
  scaled log2 fold change: 0.0247
[2]
  scaled log2 fold change: -0.209

## MAAAGGARLLRAASAVLGGPAGRWLHHAGSRAGSSGLLRNRGPGGSAEASRSLSVSARARSSSEDKITVHFINRDGETLTTKGKVGDSLLDVVVENNLDIDGFGACEGTLACSTCHLIFEDHIYEKLDAITDEENDMLDLAYGLTDRSRLGCCICLTKSMDNMTVRVPETVADARQSIDVGKTS [Q153C]
[1]
  scaled log2 fold change: -0.163
[2]
  scaled log2 fold change: -0.668

## MAAAGGARLLRAASAVLGGPAGRWLHHAGSRAGSSGLLRNRGPGGSAEASRSLSVSARARSSSEDKITVHFINRDGETLTTKGKVGDSLLDVVVENNLDIDGFGACEGTLACSTCHLIFEDHIYEKLDAITDEENDMLDLAYGLTDRSRLGCDICLTKSMDNMTVRVPETVADARQSIDVGKTS [Q153D]
[1]
  scaled log2 fold change: 0.674
[2]
  scaled log2 fold change: 0.615

Source: the supplement of paper PMC12855868
